{
  "source": "IntAct's records for PubMed 25416956",
  "parents": {"B1": {"name": "Chorion-specific transcription factor GCMb (Homo sapiens), O75603 (parent)", "chain": "MPAAAVQEAVGVCSYGMQLSWDINDPQMPQELALFDQFREWPDGYVRFIYSSDEKKAQRHLSGWAMRNTNNHNGHILKKSCLGVVVCTQACTLPDGSRLQLRPAICDKARLKQQKKACPNCHSALELIPCRGHSGYPVTNFWRLDGNAIFFQAKGVHDHPRPESKSETEARRSAIKRQMASFYQPQKKRIRESEAEENQDSSGHFSNIPPLENPEDFDIVTETSFPIPGQPCPSFPKSDVYKATCDLATFQGDKMPPFQKYSSPRIYLPRPPCSYELANPGYTNSSPYPTLYKDSTSIPNDTDWVHLNTLQCNVNSYSSYERSFDFTNKQHGWKPALGKPSLVERTNHGQFQAMATRPYYNPELPCRYLTTPPPGAPALQTVITTTTKVSYQAYQPPAMKYSDSVREVKSLSSCNYAPEDTGMSVYPEPWGPPVTVTRAASPSGPPPMKIAGDCRAIRPTVAIPHEPVSSRTDEAETWDVCLSGLGSAVSYSDRVGPFFTYNNEDF"}, "B2": {"name": "Fructose-1,6-bisphosphatase 1 (Homo sapiens), P09467 (parent)", "chain": "MADQAPFDTDVNTLTRFVMEEGRKARGTGELTQLLNSLCTAVKAISSAVRKAGIAHLYGIAGSTNVTGDQVKKLDVLSNDLVMNMLKSSFATCVLVSEEDKHAIIVEPEKRGKYVVCFDPLDGSSNIDCLVSVGTIFGIYRKKSTDEPSEKDALQPGRNLVAAGYALYGSATMLVLAMDCGVNCFMLDPAIGEFILVDKDVKIKKKGKIYSLNEGYARDFDPAVTEYIQRKKFPPDNSAPYGARYVGSMVADVHRTLVYGGIFLYPANKKSPNGKLRLLYECNPMAYVMEKAGGMATTGKEAVLDVIPTDIHQRAPVILGSPDDVLEFLKVYEKHSAQ", "partner": "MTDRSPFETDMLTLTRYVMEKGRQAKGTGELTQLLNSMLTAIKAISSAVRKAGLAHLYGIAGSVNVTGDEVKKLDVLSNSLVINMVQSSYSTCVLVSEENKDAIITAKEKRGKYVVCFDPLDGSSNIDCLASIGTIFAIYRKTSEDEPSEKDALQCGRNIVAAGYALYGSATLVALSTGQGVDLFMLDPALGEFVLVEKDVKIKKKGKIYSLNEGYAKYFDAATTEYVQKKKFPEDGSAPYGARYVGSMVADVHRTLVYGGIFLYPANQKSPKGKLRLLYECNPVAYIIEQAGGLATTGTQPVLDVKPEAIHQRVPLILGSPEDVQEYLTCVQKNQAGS"}, "B3": {"name": "Tumor necrosis factor receptor superfamily member 13B (Homo sapiens), O14836 (parent)", "chain": "MSGLGRSRRGGRSRVDQEERFPQGLWTGVAMRSCPEEQYWDPLLGTCMSCKTICNHQSQRTCAAFCRSLSCRKEQGKFYDHLLRDCISCASICGQHPKQCAYFCENKLRSPVNLPPELRRQRSGEVENNSDNSGRYQGLEHRGSEASPALPGLKLSADQVALVYSTLGLCLCAVLCCFLVAVACFLKKRGDPCSCQPRSRPRQSPAKSSQDHAMEAGSPVSTSPEPVETCSFCFPECRAPTQESAVTPGTPDPTCAGRWGCHTRTTVLQPCPHIPDSGLGIVCVPAQEGGPGA"}, "B4": {"name": "Keratin, type II cytoskeletal 2 epidermal (Homo sapiens), P35908 (parent)", "chain": "MSCQISCKSRGRGGGGGGFRGFSSGSAVVSGGSRRSTSSFSCLSRHGGGGGGFGGGGFGSRSLVGLGGTKSISISVAGGGGGFGAAGGFGGRGGGFGGGSSFGGGSGFSGGGFGGGGFGGGRFGGFGGPGGVGGLGGPGGFGPGGYPGGIHEVSVNQSLLQPLNVKVDPEIQNVKAQEREQIKTLNNKFASFIDKVRFLEQQNQVLQTKWELLQQMNVGTRPINLEPIFQGYIDSLKRYLDGLTAERTSQNSELNNMQDLVEDYKKKYEDEINKRTAAENDFVTLKKDVDNAYMIKVELQSKVDLLNQEIEFLKVLYDAEISQIHQSVTDTNVILSMDNSRNLDLDSIIAEVKAQYEEIAQRSKEEAEALYHSKYEELQVTVGRHGDSLKEIKIEISELNRVIQRLQGEIAHVKKQCKNVQDAIADAEQRGEHALKDARNKLNDLEEALQQAKEDLARLLRDYQELMNVKLALDVEIATYRKLLEGEECRMSGDLSSNVTVSVTSSTISSNVASKAAFGGSGGRGSSSGGGYSSGSSSYGSGGRQSGSRGGSGGGGSISGGGYGSGGGSGGRYGSGGGSKGGSISGGGYGSGGGKHSSGGGSRGGSSSGGGYGSGGGGSSSVKGSSGEAFGSSVTFSFR"}, "B5": {"name": "Zinc finger protein 41 (Homo sapiens), P51814 (parent)", "chain": "MAANGDSPPWSPALAAEGRGSSCEVRRERTPEARIHSVKRYPDLSPGPKGRSSADHAALNSIVSLQASVSFEDVTVDFSKEEWQHLDPAQRRLYWDVTLENYSHLLSVGYQIPKSEAAFKLEQGEGPWMLEGEAPHQSCSGEAIGKMQQQGIPGGIFFHCERFDQPIGEDSLCSILEELWQDNDQLEQRQENQNNLLSHVKVLIKERGYEHKNIEKIIHVTTKLVPSIKRLHNCDTILKHTLNSHNHNRNSATKNLGKIFGNGNNFPHSPSSTKNENAKTGANSCEHDHYEKHLSHKQAPTHHQKIHPEEKLYVCTECVMGFTQKSHLFEHQRIHAGEKSRECDKSNKVFPQKPQVDVHPSVYTGEKPYLCTQCGKVFTLKSNLITHQKIHTGQKPYKCSECGKAFFQRSDLFRHLRIHTGEKPYECSECGKGFSQNSDLSIHQKTHTGEKHYECNECGKAFTRKSALRMHQRIHTGEKPYVCADCGKAFIQKSHFNTHQRIHTGEKPYECSDCGKSFTKKSQLHVHQRIHTGEKPYICTECGKVFTHRTNLTTHQKTHTGEKPYMCAECGKAFTDQSNLIKHQKTHTGEKPYKCNGCGKAFIWKSRLKIHQKSHIGERHYECKDCGKAFIQKSTLSVHQRIHTGEKPYVCPECGKAFIQKSHFIAHHRIHTGEKPYECSDCGKCFTKKSQLRVHQKIHTGEKPNICAECGKAFTDRSNLITHQKIHTREKPYECGDCGKTFTWKSRLNIHQKSHTGERHYECSKCGKAFIQKATLSMHQIIHTGKKPYACTECQKAFTDRSNLIKHQKMHSGEKRYKASD"}, "B6": {"name": "EF-hand domain-containing protein 1 (Homo sapiens), Q5JVL4 (parent)", "chain": "MVSNPVHGLPFLPGTSFKDSTKTAFHRSQTLSYRNGYAIVRRPTVGIGGDRLQFNQLSQAELDELASKAPVLTYGQPKQAPPADFIPAHVAFDKKVLKFDAYFQEDVPMSTEEQYRIRQVNIYYYLEDDSMSVIEPVVENSGILQGKLIKRQRLAKNDRGDHYHWKDLNRGINITIYGKTFRVVDCDQFTQVFLESQGIELNPPEKMALDPYTELRKQPLRKYVTPSDFDQLKQFLTFDKQVLRFYAIWDDTDSMYGECRTYIIHYYLMDDTVEIREVHERNDGRDPFPLLMNRQRVPKVLVENAKNFPQCVLEISDQEVLEWYTAKDFIVGKSLTILGRTFFIYDCDPFTRRYYKEKFGITDLPRIDVSKREPPPVKQELPPYNGFGLVEDSAQNCFALIPKAPKKDVIKMLVNDNKVLRYLAVLESPIPEDKDRRFVFSYFLATDMISIFEPPVRNSGIIGGKYLGRTKVVKPYSTVDNPVYYGPSDFFIGAVIEVFGHRFIILDTDEYVLKYMESNAAQYSPEALASIQNHVRKREAPAPEAESKQTEKDPGVQELEALIDTIQKQLKDHSCKDNIREAFQIYDKEASGYVDRDMFFKICESLNVPVDDSLVKELIRMCSHGEGKINYYNFVRAFSN", "partner": "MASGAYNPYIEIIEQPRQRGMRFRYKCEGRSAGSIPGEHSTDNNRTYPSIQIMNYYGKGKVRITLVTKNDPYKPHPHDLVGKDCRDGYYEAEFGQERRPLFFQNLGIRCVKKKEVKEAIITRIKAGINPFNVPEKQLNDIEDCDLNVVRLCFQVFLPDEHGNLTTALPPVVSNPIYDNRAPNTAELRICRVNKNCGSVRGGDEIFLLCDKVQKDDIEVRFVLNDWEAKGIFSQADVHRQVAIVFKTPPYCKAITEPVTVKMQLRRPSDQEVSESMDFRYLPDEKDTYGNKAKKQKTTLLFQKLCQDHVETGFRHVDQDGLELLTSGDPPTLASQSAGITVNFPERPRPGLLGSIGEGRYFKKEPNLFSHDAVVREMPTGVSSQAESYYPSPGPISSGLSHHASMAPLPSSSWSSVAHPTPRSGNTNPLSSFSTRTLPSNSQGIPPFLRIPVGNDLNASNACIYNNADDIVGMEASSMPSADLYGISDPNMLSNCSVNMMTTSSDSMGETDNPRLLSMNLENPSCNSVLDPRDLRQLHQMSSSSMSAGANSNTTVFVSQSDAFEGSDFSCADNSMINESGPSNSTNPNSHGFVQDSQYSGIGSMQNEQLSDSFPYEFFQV"}},
  "data": [
    {"variants_of": "B1", "settings": "with rbpms_human RBPMS", "values": [
      {"variant": "G63S", "effect of a mutation on the interaction": "disrupting interaction"}
    ]},
    {"variants_of": "B2", "settings": "with FBP2, O00757", "values": [
      {"variant": "F194S", "effect of a mutation on the interaction": "disrupting interaction"}
    ]},
    {"variants_of": "B2", "settings": "with FBP2, O00757", "remark": "another data set of the same source", "values": [
      {"variant": "G260R", "effect of a mutation on the interaction": "disrupting interaction"}
    ]},
    {"variants_of": "B3", "settings": "with sgta_human SGTA", "values": [
      {"variant": "E125R", "effect of a mutation on the interaction": "disrupting interaction"}
    ]},
    {"variants_of": "B4", "settings": "with KRT19, P08727", "values": [
      {"variant": "I477N", "effect of a mutation on the interaction": "disrupting interaction"}
    ]},
    {"variants_of": "B5", "settings": "with fam9b_human FAM9B", "values": [
      {"variant": "Q111L", "effect of a mutation on the interaction": "disrupting interaction"}
    ]},
    {"variants_of": "B6", "settings": "with rel_human REL", "values": [
      {"variant": "R221H", "effect of a mutation on the interaction": "disrupting interaction"}
    ]},
    {"variants_of": "B6", "settings": "with rel_human REL", "remark": "another data set of the same source", "values": [
      {"variant": "A394S", "effect of a mutation on the interaction": "disrupting interaction"}
    ]},
    {"variants_of": "B6", "settings": "with rel_human REL", "remark": "another data set of the same source", "values": [
      {"variant": "P77T", "effect of a mutation on the interaction": "disrupting interaction"}
    ]}
  ]
}
